Where two headings read alike, the source gives them in different places.
Columns and labels:
[1] = molecular target: BSA (bovine) (UniProt P02769); assay: ELISA, BSA coated as negative control, binder 1 µg/mL, chemiluminescence
[2] = molecular target: BSA (bovine) (UniProt P02769); assay: as above; remark: listed apart in the source

Chain of BSA (bovine) (P02769 25-607 limits assumed): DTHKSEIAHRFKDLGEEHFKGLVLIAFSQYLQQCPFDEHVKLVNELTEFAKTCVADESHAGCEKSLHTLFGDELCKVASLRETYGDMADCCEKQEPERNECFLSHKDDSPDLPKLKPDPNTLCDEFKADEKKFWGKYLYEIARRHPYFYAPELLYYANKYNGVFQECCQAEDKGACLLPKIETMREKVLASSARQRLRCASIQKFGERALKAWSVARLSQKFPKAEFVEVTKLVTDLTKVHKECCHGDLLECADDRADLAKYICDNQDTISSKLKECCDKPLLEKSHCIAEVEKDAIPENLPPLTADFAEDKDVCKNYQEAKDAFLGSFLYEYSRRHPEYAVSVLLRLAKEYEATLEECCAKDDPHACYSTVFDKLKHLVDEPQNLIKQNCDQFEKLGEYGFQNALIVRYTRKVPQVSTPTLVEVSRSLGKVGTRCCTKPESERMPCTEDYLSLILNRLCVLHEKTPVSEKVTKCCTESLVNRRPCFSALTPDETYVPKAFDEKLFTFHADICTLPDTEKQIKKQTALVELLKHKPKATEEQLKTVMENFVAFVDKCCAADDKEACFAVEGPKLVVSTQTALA
Chain of BD23 (antibody) (VH): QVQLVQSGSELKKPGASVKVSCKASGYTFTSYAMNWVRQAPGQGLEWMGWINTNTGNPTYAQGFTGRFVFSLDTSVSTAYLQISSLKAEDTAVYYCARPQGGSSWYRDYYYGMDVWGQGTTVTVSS
Chain of BD23 (antibody) (VL): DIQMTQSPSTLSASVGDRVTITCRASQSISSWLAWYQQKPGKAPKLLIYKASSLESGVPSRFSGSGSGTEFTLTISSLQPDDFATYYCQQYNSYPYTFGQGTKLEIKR
Chain of CR3022 (antibody) (VH): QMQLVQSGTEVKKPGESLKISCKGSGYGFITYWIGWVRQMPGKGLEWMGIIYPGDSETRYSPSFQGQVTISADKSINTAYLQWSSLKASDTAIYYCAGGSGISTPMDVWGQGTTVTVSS
Chain of CR3022 (antibody) (VL): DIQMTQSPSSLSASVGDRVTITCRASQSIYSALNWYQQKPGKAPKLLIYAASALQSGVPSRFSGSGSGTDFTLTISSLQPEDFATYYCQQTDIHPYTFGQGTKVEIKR

| Substance | signal intensity [1] | signal intensity [2] |
| --- | --- | --- |
| BD23 (antibody) | 83 | 13 |
| CR3022 (antibody) | 53 | 63 |
| CV30 (antibody) | 33 | 73 |
| REGN10933 (antibody) | 63 | 53 |
| REGN10987 (antibody) | 63 | 43 |

— patent US20240255507A1
